Laboratory results taken from PMC10803816, “EGFR core fucosylation, induced by hepatitis C virus, promotes TRIM40-mediated-RIG-I ubiquitination and suppresses interferon-I antiviral defenses”.

Experiments:
immunoblot of total EGFR = settings: glycan lost; control: wild-type Flag-EGFR
[1] = RT-qPCR of HCV RNA, 48 h infection; settings: glycan lost; control: EGFR KO Huh7 complemented with wild-type EGFR
[2] = confocal EGFR/Lamp1 colocalisation after EGF, Huh7; settings: glycan lost; control: wild-type EGFR
His6-SNAIL [3] = target: T1, His6-SNAIL (UniProt O95863 1-264); assay: EMSA; text: SNAIL lost ability to bind mutant probe; legend and Methods leave open whether labeled or competitor; Beyotime EMSA kit GS005 per manufacturer; 8% native PAGE; buffer, salt, pH and temperature not stated; settings: protein: recombinant; tags: His6 (pET28a); label: 5' FAM per Methods (legend also mentions mutant probe added at 300 nM); blunt
T1 sequence (O95863 whole entry): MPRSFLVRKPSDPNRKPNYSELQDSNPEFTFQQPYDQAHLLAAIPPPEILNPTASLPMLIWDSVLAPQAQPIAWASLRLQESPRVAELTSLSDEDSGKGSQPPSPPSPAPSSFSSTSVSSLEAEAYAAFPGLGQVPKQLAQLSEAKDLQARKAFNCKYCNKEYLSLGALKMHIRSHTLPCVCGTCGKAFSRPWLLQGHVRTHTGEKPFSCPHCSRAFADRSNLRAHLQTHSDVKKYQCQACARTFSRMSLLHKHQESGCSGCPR

His6-SNAIL [4] = target: T1, His6-SNAIL; assay: EMSA; increasing SNAIL; Beyotime EMSA kit GS005 per manufacturer; 8% native PAGE; buffer, salt, pH and temperature not stated; settings: protein: recombinant; tags: His6 (pET28a); label: 5' FAM; blunt
His6-SNAIL [5] = target: T1, His6-SNAIL; assay: competition; 10-fold excess (300 nM) unlabeled probe abolished binding to WT-FAM probe; Beyotime EMSA kit GS005 per manufacturer; 8% native PAGE; buffer, salt, pH and temperature not stated; settings: protein: recombinant; tags: His6 (pET28a); blunt

## Epidermal growth factor receptor (EGFR, ErbB1, HER1): N352Q
Immunoblot of total EGFR
  expression_or_secretion: no change
[1]
  other: viral replication: decreases
[2]
  localisation_or_trafficking: decreases

B1: FUT8 promoter Mut probe (dsDNA)
DNA 1: TACACTTCCTGACGTGAGAGGGGTCAGAGTGTGGGT
DNA 2: ACCCACACTCTGACCCCTCTCACGTCAGGAAGTGTA
His6-SNAIL [3]
  binding result: no binding

B2: FUT8 promoter WT probe (-295 to -260) (dsDNA)
DNA 1: TACACTTCCTGACGTGGCAGGTGAGAGAGTGTGGGT
DNA 2: ACCCACACTCTCTCACCTGCCACGTCAGGAAGTGTA
His6-SNAIL [4]
  binding result: binds

B3: FUT8 promoter WT unlabeled competitor (dsDNA)
DNA 1: B2 DNA 1
DNA 2: B2 DNA 2
His6-SNAIL [5]
  binding result: binds
